We go through 18 molecules from US20250114463A1, “LIVER-TARGETED DRUG AND USE THEREOF” (HANMI PHARM. CO., LTD., priority 2021, published 2025).

Bridges are numbered along the chain shown (N, C = ends). Where no end group is shown, it is not given here. [ ]: non-standard residue; d: D form. The star is where a group is joined. Acetyl(2-(4-imidazolyl)) = O=C(Cc1c[nH]cn1)*; Aib = CC(C)(N)C(=O)O

Assay in all cases: cell-based or functional assay
One experiment deals with human GCG receptor (human, UniProt P47871 26-477).
A further experiment addresses T1, human GIP receptor (human, UniProt P48546 22-466).
T1 sequence (looked up): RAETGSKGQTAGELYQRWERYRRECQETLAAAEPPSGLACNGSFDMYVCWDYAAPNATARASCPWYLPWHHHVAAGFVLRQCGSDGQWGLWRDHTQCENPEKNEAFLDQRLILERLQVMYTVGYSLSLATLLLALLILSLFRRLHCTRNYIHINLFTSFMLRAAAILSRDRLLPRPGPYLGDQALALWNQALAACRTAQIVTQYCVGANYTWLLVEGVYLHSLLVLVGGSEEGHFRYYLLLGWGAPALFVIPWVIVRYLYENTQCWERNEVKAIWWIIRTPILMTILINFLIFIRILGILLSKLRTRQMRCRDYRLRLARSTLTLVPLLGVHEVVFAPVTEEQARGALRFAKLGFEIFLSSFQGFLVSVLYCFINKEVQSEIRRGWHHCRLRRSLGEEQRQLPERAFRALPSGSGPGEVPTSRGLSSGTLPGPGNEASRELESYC

Another experiment concerns the target human GLP-1 receptor (human, UniProt P43220 24-463).

human GCG receptor, sequence (P47871 26-477): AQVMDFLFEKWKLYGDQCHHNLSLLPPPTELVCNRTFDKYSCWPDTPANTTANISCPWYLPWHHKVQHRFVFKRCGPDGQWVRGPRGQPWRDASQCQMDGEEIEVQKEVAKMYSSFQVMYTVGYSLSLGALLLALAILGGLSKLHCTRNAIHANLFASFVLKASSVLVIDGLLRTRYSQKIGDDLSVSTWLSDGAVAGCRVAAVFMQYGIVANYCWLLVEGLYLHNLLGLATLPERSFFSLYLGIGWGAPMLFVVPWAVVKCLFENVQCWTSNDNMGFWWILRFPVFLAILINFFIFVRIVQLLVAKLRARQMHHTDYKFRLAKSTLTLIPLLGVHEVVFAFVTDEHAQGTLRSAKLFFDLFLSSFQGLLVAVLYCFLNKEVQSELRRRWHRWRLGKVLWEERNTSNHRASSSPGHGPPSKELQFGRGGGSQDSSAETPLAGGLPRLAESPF

With [Acetyl(2-(4-imidazolyl))][Aib]QGTFTSDYSKYLDECRAKEFVQWLLDHHPSSGQPPPS (bridge 16-20; not fully specified (C-terminus)) [triple agonist of SEQ ID NO: 73], in the experiment with human GCG receptor, the “in vitro Activity Compared to Native Peptide (%), vs Glucagon” value is 5.4%. Moreover, the “in vitro Activity Compared to Native Peptide (%), vs GIP” value with human GIP receptor amounted to 3%. Besides, in the experiment with human GLP-1 receptor, the “in vitro Activity Compared to Native Peptide (%), vs GLP-1” value was 22.6%.
With H[Aib]EGTFTSDYSIAMDEIHQKDFVDWLLAEKC (bridge 16-20; not fully specified (C-terminus)) [triple agonist of SEQ ID NO: 80], the “in vitro Activity Compared to Native Peptide (%), vs Glucagon” value in the experiment with human GCG receptor amounted to 0%. Also, the “in vitro Activity Compared to Native Peptide (%), vs GIP” value with human GIP receptor was found to be 0.1%. Further, the “in vitro Activity Compared to Native Peptide (%), vs GLP-1” value in the experiment with human GLP-1 receptor was 8.1%.
Taken in the same sequence, the figures for H[Aib]QGTFTSDYSKYLDEKRQKEFVQWLLDTKC (bridge 16-20; not fully specified (C-terminus)) [triple agonist of SEQ ID NO: 78] were 14%, 0.12% and 51%.
The like results for H[Aib]QGTFTSDVSKYLDGQAAQEFVAWLLAGC (not fully specified (C-terminus)) [triple agonist of SEQ ID NO: 9] were, in that order, 0.13%, < 0.1% and 32.1%.
H[Aib]QGTFTSDVSKYLDGQAAQEFVAWLLKGC (not fully specified (C-terminus)) [triple agonist of SEQ ID NO: 8]: the “in vitro Activity Compared to Native Peptide (%), vs Glucagon” value with human GCG receptor came out at 0.1%. In the experiment with human GIP receptor, the “in vitro Activity Compared to Native Peptide (%), vs GIP” value was < 0.1%. Besides, the “in vitro Activity Compared to Native Peptide (%), vs GLP-1” value in the experiment with human GLP-1 receptor was 14.2%.
Taken in the same sequence, the figures for Y[Aib]QGTFTSDYSKYLDEKAAKEFVQWLLDHHPSSGQPPPSC (bridge 16-20; not fully specified (C-terminus)) [triple agonist of SEQ ID NO: 75] were 8.5%, 18% and 35.1%.
Consider [Acetyl(2-(4-imidazolyl))][Aib]QGTFTSDYSIAMDEIHQKDFVNWLLAQC (bridge 16-20; not fully specified (C-terminus)) [triple agonist of SEQ ID NO: 85], for which the “in vitro Activity Compared to Native Peptide (%), vs Glucagon” value with human GCG receptor is < 0.1%. For the same molecule, the “in vitro Activity Compared to Native Peptide (%), vs GIP” value with human GIP receptor amounted to 0.3%. The “in vitro Activity Compared to Native Peptide (%), vs GLP-1” value with human GLP-1 receptor was determined as 4.3%.
Regarding [Acetyl(2-(4-imidazolyl))][Aib]QGTFTSDYSKYLDEKRQKEFVQWLLNTC (bridge 16-20; not fully specified (C-terminus)) [triple agonist of SEQ ID NO: 81], the “in vitro Activity Compared to Native Peptide (%), vs Glucagon” value with human GCG receptor was found to be 0.3%. In the experiment with human GIP receptor, the “in vitro Activity Compared to Native Peptide (%), vs GIP” value was < 0.1%. Further, the “in vitro Activity Compared to Native Peptide (%), vs GLP-1” value with human GLP-1 receptor came out at 7.8%.
The like results for [Acetyl(2-(4-imidazolyl))][Aib]QGTFTSDYSKYLDEKRQKEFVQWLLNTKC (bridge 16-20; not fully specified (C-terminus)) [triple agonist of SEQ ID NO: 88] were, in that order, 0.3%, < 0.1% and 9.6%.
Taken in the same sequence, the figures for Y[Aib]QGTFTSDYSKYLDEKRAKDFVQWLLDHHPSSGQPPPSC (bridge 16-20; not fully specified (C-terminus)) [triple agonist of SEQ ID NO: 76] were 47.6%, 11.7% and 10.3%.
The like results for [Acetyl(2-(4-imidazolyl))][Aib]EGTFTSDYSIAMDEIHQKDFVNWLLAQC (bridge 16-20; not fully specified (C-terminus)) [triple agonist of SEQ ID NO: 83] were, in that order, 1.3%, 0.4% and 47.3%.
Turning to [Acetyl(2-(4-imidazolyl))][Aib]QGTFTSDYSKYLDEKRQKEFVQWLLDTC (bridge 16-20; not fully specified (C-terminus)) [triple agonist of SEQ ID NO: 82], the “in vitro Activity Compared to Native Peptide (%), vs Glucagon” value with human GCG receptor worked out at 1.1%. In the experiment with human GIP receptor, the “in vitro Activity Compared to Native Peptide (%), vs GIP” value was < 0.1%. Further, the “in vitro Activity Compared to Native Peptide (%), vs GLP-1” value in the experiment with human GLP-1 receptor is 9.5%.
The like results for Y[Aib]QGTFTSDYSKYLDEKAAKDFVQWLLDHHPSSGQPPPSC-NH2 (bridge 16-20) [triple agonist of SEQ ID NO: 77] were, in that order, 12.2%, 35.5% and 38.7%.
Consider [Acetyl(2-(4-imidazolyl))][Aib]QGTFTSDYSKCLDEKRAKEFVQWLLDHHPSSGQPPPS (bridge 16-20; not fully specified (C-terminus)) [triple agonist of SEQ ID NO: 74], for which the “in vitro Activity Compared to Native Peptide (%), vs Glucagon” value in the experiment with human GCG receptor is 0.9%. The “in vitro Activity Compared to Native Peptide (%), vs GIP” value with human GIP receptor amounted to 1%. The “in vitro Activity Compared to Native Peptide (%), vs GLP-1” value in the experiment with human GLP-1 receptor came out at 12.9%.
The like results for H[Aib]EGTFTSDYSIAMDEIHQKDFVNWLLAQKC (bridge 16-20; not fully specified (C-terminus)) [triple agonist of SEQ ID NO: 79] were, in that order, 4.9%, 1.4% and 41.5%.
The like results for [Acetyl(2-(4-imidazolyl))][Aib]EGTFTSDYSIAMDEIHQKDFVDWLLAEC (bridge 16-20; not fully specified (C-terminus)) [triple agonist of SEQ ID NO: 84] were, in that order, < 0.1%, < 0.1% and 4.2%.
The like results for [Acetyl(2-(4-imidazolyl))][Aib]QGTFTSDYSKYLDEKRQKEFVNWLLAQC (bridge 16-20; not fully specified (C-terminus)) [triple agonist of SEQ ID NO: 86] were, in that order, 0.4%, 0.2% and 28.4%.
Turning to [Acetyl(2-(4-imidazolyl))][Aib]QGTFTSDYSIAMDEIHQKDFVNWLLNTC (bridge 16-20; not fully specified (C-terminus)) [triple agonist of SEQ ID NO: 87], in the experiment with human GCG receptor, the “in vitro Activity Compared to Native Peptide (%), vs Glucagon” value is < 0.1%. Besides, the “in vitro Activity Compared to Native Peptide (%), vs GIP” value with human GIP receptor is < 0.1%. In addition, in the experiment with human GLP-1 receptor, the “in vitro Activity Compared to Native Peptide (%), vs GLP-1” value was 0.9%.
